# Reference: the nanobody polyreactivity screen of Harvey et al. (2022)
# Assay: yeast display, Sf9 membrane polyspecificity reagent, FACS + sequencing; frameworks hold sequencing errors
# In short: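 A nanobody's polyreactivity label depends on the gate it was sorted from. Yeast display cells were stained with 10% biotinylated, detergent-solubilized Sf9 membrane reagent for 1 hour at 4 °C, enriched on streptavidin microbeads and sorted by FACS. The low and high (top ~1%) gates were set on anti-HA fluorescence for expression and streptavidin fluorescence for reagent binding.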
row,Sequence,polyreactivity (PSR sort gate)
1,QVQLVESGGGLVQAGGSLRLSCAASGDIFDAYAMGWYRQAPGKERELVAAISRSGGSTYYADSVKGRFTISRDNAKNTVYLQMNSLKPEDTAVYYCATRFSRRYVRYDYWGHGTQVTVSS,high polyreactivity
2,QVQLVESGGGLVQAGGSLRLSCAASGFFFDEYAMGWYRLAPGKERELVAAIDVGGSTYYADSVKGRFTISRDNAKNTVYLQMNSLKPEDTAVYYCARDAFSVSDFSYASIEYDYWGQGTQVTVSS,low polyreactivity
3,QVQLVESGGGLVQAGGSLRLSCAASGFICTGYTMGWYRQAPGKERELVARISSGDSTKYADSVKGRFTISRDNAKNTVYLQMNSLKPEDTAVYYCNVRDRRSIRSRSDYWGQGTQVTVSS,high polyreactivity
4,QVQLVESGGGLVQAGGSLRLSCAASGFICYFYAMGWYRQAPGKERELVAVITQSGGSTYYADSVKGRFTISRDNAKNTVYLQMNSLKPEDTAVYYCNADTVRYYPFFSVRYYYWGQGTQVTVSS,low polyreactivity
5,QVQLVESGGGLVQAGGSLRLSCAASGFIFADYDMGWYRQAPGKERELVAAISWSGGTTYYADSVKGRFTISRDNAKNTVYLQMNSLKPEDTAVYYCAAYWWAVYSVVTGARYDYWGQGTQVTVSS,high polyreactivity
6,QVQLVESGGGLVQAGGSLRLSCAASGFIFAEYAMGWYRQAPWKERELVAAITRSGGRTYYADSVKGRFTISRDNAKNTVYLQMNSLKPEDTAVYYCAAGLGYPRLYYCGQGTQVTVSS,high polyreactivity
7,QVQLVESGGGLVQAGGSLRLSCAASGFIFAFYDMGWYRQAPGKERELVAAISWGGSTYYADSVKGRFTISRDNAKNTVYLQMNSLKPQDTAVYYCAARLSRSYRYGYWGQGTQVTVSS,high polyreactivity
8,QVQLVESGGGLVQAGGSLRLSCAASGFIFAGYALGWYRQAPGKERELVAAISSGGGSTYYADSVKGRFTISRDNAKNTGYLQMNSLKPEDTAVYYCAARRLYPPGYYYWGQGTQVTVSS,high polyreactivity
9,QVQLVESGGGLVQAGGSLRLSCAASGFIFAIYAMGWYRQAPGKEMELVAAITSSGGSTYYADSVKGRFTISRDNAKNTVYLQMNSLKPEDTAVYYCNKLSWRKYLGYEYWGQGTHVTVSS,high polyreactivity
10,QVQLVESGGGLVQAGGSLRLSCAASGFIFALYAMGWYRQAPGKERELVASISKSGARTYYADSVKGRFTISRDNAKNTVDLQMNSLKPEDPAVYYCAALYRTGGIQYAGYGYWGQGTQVTVSS,high polyreactivity
11,QVQLVESGGGLVQAGGSLRLSCAASGFIFANYGMGWYRQAPGKERELVAAISSGGRTYYADSVKARFTISRDNAKNTVYFQMNSLQPEDTAVYYCAAVVRRYNAEDYWGQGTQVTVSS,high polyreactivity
12,QVQLVESGGGLVQAGGSLRLSCAASGFIFAQNAMGWYRQAPGKERELVAAISGSGGRTYYADSVKGRFTISRDNAKNTVYLQMNSLKPEDTAVYYCAAQYFSGYWGQGTQVTVSS,high polyreactivity
13,QVQLVESGGGLVQAGGSLRLSCAASGFIFASNAMGWYRPAPGKERELVAAISTNGGSTNYADSVKGRFTISRDNAKKTVYLQMNSLKPEDTAVYYCNTDFPTQYGTRIGDDYWGQGTQVTVSS,low polyreactivity
14,QVQLVESGGGLVQAGGSLRLSCAASGFIFATNNMGWYRQAPGKERELVAASSTYYADSVKGRFTISRDNAKNTVYLQMNSLKPEDTAVYYCNALYRYLYRSGDYWGLGTQVTVSS,low polyreactivity
15,QVQLVESGGGLVQAGGSLRLSCAASGFIFAVNAMGWYRPAPGKERELVAAISRSGGTTYYADSVKGRFTISRDNAKNTVYLQMNSLKPEDTAVYYCARSSGLRSWRSSDYWGQGTQVTVSS,high polyreactivity
16,QVQLVESGGGLVQAGGSLRLSCAASGFIFAYNAMGWYRQAPGKEWELVAAISWSGGSTYYADSVKGRFTISRDNAKNTVYLQMNSLKPEDTAVYYCNKYLRYPFKRYGYWGQGTQVTVSS,high polyreactivity
17,QVQLVESGGGLVQAGGSLRLSCAASGFIFAYYAMGRYRQAPGKEREFVAVINWSGGITYYADSVKGRFTISRDNAKNTVYLQMNSLKPEDTAVYYCAADELAGYDYWGQGTQVTVSS,low polyreactivity
18,QVQLVESGGGLVQAGGSLRLSCAASGFIFAYYAMGRYRQAPGKERELVAAITIDGSTYYADSVKGRFTIHDNAKNTVYLQMNRLKPEDTAVYYCNAGRWVYWQNNFGDYGYWGQGTQVTVSS,low polyreactivity
19,QVQLVESGGGLVQAGGSLRLSCAASGFIFAYYAMGWYRQAPGKERELVAAISQSGTSTYYADSVKGRFTISRDNAKNTVYLQMNSLKPEDTAVYYCNVVPTGVHIFDYWGQGTQVTVSS,low polyreactivity
20,QVQLVESGGGLVQAGGSLRLSCAASGFIFAYYAMGWYRQAPGKERELVAAISSRAGRTYYADSVKGRFTISRDNAKNTVYLQMNSLKPEYTAVYYWAAPTSSSGRYHRYYYWGQGTQVTVSS,high polyreactivity
21,QVQLVESGGGLVQAGGSLRLSCAASGFIFAYYAMGWYRQAPGKERELVAAISSSGGSTYYADSVKGRFTISRDNAKNTVYLQMNSLKPEDTAVYFCNRRWVAPYFYSRYYSGQEEGYWGQGTQVTVSS,high polyreactivity
22,QVQLVESGGGLVQAGGSLRLSCAASGFIFAYYAMGWYRQAPGKETELVAAITWSGGRTYYADSVKGRFTISRDNSKNTVYLQMNSLKPEDTAVYYCNAVRPSVDYGYWGQGTQVTVSS,high polyreactivity

row,Sequence,polyreactivity (PSR sort gate)
1,QVQLVESGGGLVQAGGSLRLSCAASGFIFAYYTMGWYRQAPGKEREFVASITYSGGNTYYADSVKGRFTISRDNAKNTVYLQMNSLKPEDTAVYYCATRDGYSISTTGLMDYWGQGTQVTVSS,low polyreactivity
2,QVQLVESGGGLVQAGGSLRLSCAASGFIFDAYAMGWYRQAPGKERELVAAITRGNTYYADSVKGRFTISRDNAKNTVYLQMNSLKPEDTALYYCNADYNYANYPHDYWGQVTQVTVSS,low polyreactivity
3,QVQLVESGGGLVQAGGSLRLSCAASGFIFDDNTMGWYRQAPGKERELVAAISYSAGSTYYADSVKGRFTISRDNAKNTVYLQMNSLKPEDTAVYYCAAQHYWVTSYLSSYDYWGQGTQVTVSS,low polyreactivity
4,QVQLVESGGGLVQAGGSLRLSCAASGFIFDHNAMGWYRQAPGKERELVAAISGSGGSTYYADSVKGRFTISRDNAKNTVYLQMNSLKPEDTAVYYCNALKRTRLVRYYYWGQGTQVNVSS,high polyreactivity
5,QVQLVESGGGLVQAGGSLRLSCAASGFIFDKNAMGWYRQAPGKERELVAAITSSGGSTYADSVKGRFTISRDNAKNTVYLQMNSLKPEDTAVYYCAARWYRPWYVTDSGDDYWGQGTQVTVSS,low polyreactivity
6,QVQLVESGGGLVQAGGSLRLSCAASGFIFDLYAMGWYRQAPGKERELVAAISPSGGSTYYADSVKGRFTISRDNAKNTVYLQMNSLKPEDTAVYYCNTGIRWAISKEYDYWGQGTQVTVSS,high polyreactivity
7,QVQLVESGGGLVQAGGSLRLSCAASGFIFDPYAMGWYRQAPGKERELVARITWSGGRTYYADSVKGRFTISRDNAKNTVYLQMNSLKPEDTAVYYCNADVYGFDYWGQGTQVTVSS,high polyreactivity
8,QVQLVESGGGLVQAGGSLRLSCAASGFIFDQNAMGWYRQAPGKERELVAAISKRGGSTYYADSVKGRFTISRDTAKNTVYLQMNSLKPEDTAVYYCATRSWGPYYYGYNHWGQGTQVTVSS,high polyreactivity
9,QVQLVESGGGLVQAGGSLRLSCAASGFIFDQYAMGWYRQAPGKERELVAAISSGGRTYYADSVKGRFTISRDNAKNTVYLQMNSLKPEDTAVYYCAAKSWTDSRVTGYWGQGTQVTVSS,high polyreactivity
10,QVQLVESGGGLVQAGGSLRLSCAASGFIFDQYDMGWYRQAPGKERELVAAISDSGGSTYYADSVKGRFTISRDNAKNTVYLQMNSLKPEDTAVYYCAAGSYLAFGGLWFYYWGQGTQVTVSS,high polyreactivity
11,QVQLVESGGGLVQAGGSLRLSCAASGFIFDSNPIGWYRQAPWKEREVVAAISSSGGSTYYADSVKGRFTISRDNAKNTVYLQMKSLKPEDTAVYYCGAESQRFISSSEVYWGQGTQVTVSS,low polyreactivity
12,QVQLVESGGGLVQAGGSLRLSCAASGFIFDSYAMGWYRQAPGKERELVAAISWSGGRTYYADSVKGRFTISRDNAKNTVYLQMNSLKPEDTAVYYCNVRTKLSTSYDYWGQGTQVTVSS,high polyreactivity
13,QVQLVESGGGLVQAGGSLRLSCAASGFIFDTYAMGWYRQAPGKERELVAAISRSGVRTYYADSVKGRFTISRDNAKNTVYLQMNSLTPEDTAVYYCNAALNRYHFGRAVPGDYWGQGTQVTVSS,high polyreactivity
14,QVQLVESGGGLVQAGGSLRLSCAASGFIFDTYAMGWYRQAPGKERELVARINYSGGSTRYADSVKGRFTISRDNAKNTVYLQMNSLKPEDTAVYYCAAREFSYGFYYWGQGTQVTVSS,high polyreactivity
15,QVQLVESGGGLVQAGGSLRLSCAASGFIFDVNAMGWYRQAPGKERELVATISKRGGTTYYADSVKGRFTISRDNAKNTVYLQMNSLKPEDTAVYYCAARHQTLRSYRYDYWGQGTQVTVSS,low polyreactivity
16,QVQLVESGGGLVQAGGSLRLSCAASGFIFDVNAMGWYRQAPGKETELVAAISKSGRRTYYADSVKGRFTISRDNAKNTVYLQMNSLKPEDTAVYYCAASLRASPSFGYWGQGTQVTVSS,high polyreactivity
17,QVQLVESGGGLVQAGGSLRLSCAASGFIFDVYAMGWYRQAPGKERELVAAISRSGGSTHYADSVKGRFTISRDNAKNTVYLQMNSLKPEDTAVYYCATGIRVGYAKYDYWGQGTQVTVSS,high polyreactivity
18,QVQLVESGGGLVQAGGSLRLSCAASGFIFDVYAMGWYRQAPGKERELVAAITSGDGTNYADSVKGRFTISRDNAKNTVYLQMNSLKPEDTAVYYCAADDGVTYRGIIFSYWGQGSQVTVSS,low polyreactivity
19,QVQLVESGGGLVQAGGSLRLSCAASGFIFDWNTMGWYRQAPGKERELVAAITESSGSTYYADSVKGRFTISRDNAKNTVYLQMNSLKPEDTAVYYCAADFSYVYYLYDYWGQGTQVTVSS,low polyreactivity
20,QVQLVESGGGLVQAGGSLRLSCAASGFIFDWYAMGWYRQAPGKERELVAAITRSGGNTYYADSVKGRFTISRDNAKNTVYLQMNSLKPEDTAVYYCNAVAAVYAYGHDYWGQGTQVTVSS,high polyreactivity
21,QVQLVESGGGLVQAGGSLRLSCAASGFIFDYNAMGWYRQAPGKERELVDAISGGGGSTYYADSVKGRFTISRDNAKNTVFLLMNSLKPEDTSVYDCAKRYRGGYWGQGSQVTVSS,high polyreactivity
